This assay addresses T1, human EpCAM full-length protein (on MCF-7 and A431 cells) (human, UniProt P16422 24-314).
T1 construct: Endogenous EpCAM on the cell lines MCF-7 and A431 (ATCC); also called CD326; epithelial cell adhesion molecule
T1 sequence: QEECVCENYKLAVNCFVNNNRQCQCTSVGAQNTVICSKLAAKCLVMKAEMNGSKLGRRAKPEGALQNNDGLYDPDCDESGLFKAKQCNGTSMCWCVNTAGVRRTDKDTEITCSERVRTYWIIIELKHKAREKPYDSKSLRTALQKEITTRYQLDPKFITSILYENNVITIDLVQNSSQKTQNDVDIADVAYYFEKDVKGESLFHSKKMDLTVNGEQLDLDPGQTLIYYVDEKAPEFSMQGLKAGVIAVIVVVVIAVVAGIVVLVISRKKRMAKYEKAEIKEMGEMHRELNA
The assay can be described thus: flow cytometry (FACS) on MCF-7 and A431 cells, Alexa Fluor 488 goat anti-human IgG detection. A general note: In flow cytometry, cells or beads pass a laser one at a time.

B1: fully human antibody h1905 (antibody, human IgG1, kappa, V domains shown)
VH: QMQLVQSGAEVKKPGASVKVSCKASGYTFTSYDINWVRQATGQGLEWMGWMNPNSGNTGYAQKFQGRVTMTRNTSISTAYMELSSLRSEDTAVYYCARGVVVVVAATRGHYYYYYGMDVWGQGTTVTVSS
VL: DIQMTQSPSSLSASIGDRVSMTCRASQSVTKYLNWYQQTPGKPPKLLIFSASHLQTGVPSRFSGSGSGTDFTLTIDSLQPEDVATYYCQQSYSTPFTFGQGTKVEIKR
notes: Complete antibody VH-CH1-FC/VL-CL built from a phage scFv
On to B1, for which the binding result was “binds”.

B2: fully human antibody h1907 (antibody, human IgG1, kappa, V domains shown)
VH: QVTLKESGPTLVKPTQTLTLTCTFSGFSLSTSGVAVGWIRQPPGKALEWLALIYWDADTRYSPSLKSRLTITKDTSKNQVVLTMTNMDPVDTATYYCAHRPHGSGSYYAFDYWGQGILVTVSS
VL: DIVMTQSPSSLSASVGDRVTISCRASQNIRNYLNWYQHRPGEAPKLLISGVSRLQNGVPSRFSGSGSGTDFTLTIRSLQSEDFATYYCQQSYINWTFGQGTKVEIKR
notes: as for B1
As to B2, the binding result was “binds”.

For the origin of these results see patent WO2020216210A1 (dated 2020).
